B1: PU.1 motif oligo 46 (dsDNA)
DNA 1: ACGTCACTTCCTCCAGACGT
DNA 2: ACGTCTGGAGGAAGTGACGT
B2: PU.1 motif oligo 52 (dsDNA)
DNA 1: ACGTGCCTTCCTCTTTACGT
DNA 2: ACGTAAAGAGGAAGGCACGT
B3: PU.1 motif oligo 59 (dsDNA)
DNA 1: ACGTAACTTCTTCCTTACGT
DNA 2: ACGTAAGGAAGAAGTTACGT
B4: PU.1 motif oligo 47 (dsDNA)
DNA 1: ACGTCGCTTCCTCCTCACGT
DNA 2: ACGTGAGGAGGAAGCGACGT
B5: PU.1 motif oligo 62 (dsDNA)
DNA 1: ACGTCTCTTCCTCCCTACGT
DNA 2: ACGTAGGGAGGAAGAGACGT
B6: PU.1 motif oligo 53 (dsDNA)
DNA 1: ACGTCACTTCCATTCTACGT
DNA 2: ACGTAGAATGGAAGTGACGT
B7: PU.1 motif oligo 7 (dsDNA)
DNA 1: ACGTCAGTTCCTCTTTACGT
DNA 2: ACGTAAAGAGGAACTGACGT
B8: PU.1 motif oligo 57 (dsDNA)
DNA 1: ACGTGAGTTCCTTTAAACGT
DNA 2: ACGTTTAAAGGAACTCACGT
B9: PU.1 motif oligo 54 (dsDNA)
DNA 1: ACGTCTCTTCCTTTCTACGT
DNA 2: ACGTAGAAAGGAAGAGACGT
B10: PU.1 motif oligo 49 (dsDNA)
DNA 1: ACGTCAGTTCCTCCTGACGT
DNA 2: ACGTCAGGAGGAACTGACGT
B11: PU.1 motif oligo 48 (dsDNA)
DNA 1: ACGTCACTTCTGCTTTACGT
DNA 2: ACGTAAAGCAGAAGTGACGT
B12: PU.1 motif oligo 61 (dsDNA)
DNA 1: ACGTATCTTCCTCATAACGT
DNA 2: ACGTTATGAGGAAGATACGT
B13: PU.1 motif oligo 51 (dsDNA)
DNA 1: ACGTCACTTCCTTGTCACGT
DNA 2: ACGTGACAAGGAAGTGACGT
B14: PU.1 motif oligo 63 (dsDNA)
DNA 1: ACGTCACTTCCACAGTACGT
DNA 2: ACGTACTGTGGAAGTGACGT
B15: PU.1 motif oligo 60 (dsDNA)
DNA 1: ACGTCGCTTCCTTCCTACGT
DNA 2: ACGTAGGAAGGAAGCGACGT
B16: PU.1 motif oligo 58 (dsDNA)
DNA 1: ACGTCACTTCCCCAGGACGT
DNA 2: ACGTCCTGGGGAAGTGACGT
B17: PU.1 motif oligo 64 (dsDNA)
DNA 1: ACGTGACTTCCACAATACGT
DNA 2: ACGTATTGTGGAAGTCACGT
B18: PU.1 motif oligo 45 (dsDNA)
DNA 1: ACGTCATTTCCTCCTTACGT
DNA 2: ACGTAAGGAGGAAATGACGT
B19: PU.1 motif oligo 6 (dsDNA)
DNA 1: ACGTGACTTCCTCTTTACGT
DNA 2: ACGTAAAGAGGAAGTCACGT
B20: PU.1 motif oligo 56 (dsDNA)
DNA 1: ACGTCGTTTCCTCTTTACGT
DNA 2: ACGTAAAGAGGAAACGACGT
B21: PU.1 motif oligo 55 (dsDNA)
DNA 1: ACGTCACTTCCCTCCCACGT
DNA 2: ACGTGGGAGGGAAGTGACGT
B22: PU.1 motif oligo 50 (dsDNA)
DNA 1: ACGTCTCTTCCCCTCTACGT
DNA 2: ACGTAGAGGGGAAGAGACGT

The data set deals with PU.1 (human, UniProt P17947 1-270). Kind of data set: MST; MST: 20 mM Tris-HCl pH 7.6, 1.5 mM MgCl2, 0.5 mM EGTA, 10% glycerol, 300 mM KCl, 10 mM DTT, 25 C; 50 nM Cy3-dsDNA, PU.1 1:1 dilutions from 23 uM. To be noted: protein: recombinant; tags: N-terminal His-tag; label: Cy3 on upper strand.
Take B1: the Kd stood at 634 ± 12 nM.

On to B2, for which the dissociation constant Kd was found to be 887 ± 104 nM.

As for B3, the dissociation constant (Kd) stood at 1620 ± 20 nM.

Turning to B4, the Kd was 757 ± 186 nM.

Take B5: the dissociation constant (Kd) turned out to be 1940 ± 1260 nM.

As for B6, the dissociation constant Kd turned out to be 4600 ± 2570 nM.

For B7, the Kd worked out at 222 ± 45 nM.

For B8, the dissociation constant Kd stood at 1660 ± 170 nM.

As for B9, the equilibrium dissociation constant (Kd) amounted to 1700 ± 440 nM.

For B10, the Kd worked out at 929 ± 222 nM.

On to B11, for which the dissociation constant (Kd) is 600 ± 7 nM.

With B12, the Kd amounted to 790 ± 77 nM.

In the case of B13, the dissociation constant Kd was 786 ± 41 nM.

Consider B14, for which the Kd came to 1930 ± 220 nM.

For the molecule B15, the dissociation constant (Kd) amounted to 1895 ± 10 nM.

As to B16, the equilibrium dissociation constant (Kd) amounted to 1070 ± 229 nM.

For B17, the equilibrium dissociation constant (Kd) came out at 1220 ± 350 nM.

With B18, the Kd came out at 828 ± 8 nM.

For the molecule B19, the dissociation constant (Kd) amounted to 190 ± 31 nM.

On to B20, for which the dissociation constant (Kd) came to 670 ± 145 nM.

For the molecule B21, the Kd worked out at 1010 ± 192 nM.

With B22, the Kd came out at 2120 ± 890 nM.

As a reminder, the Kd is the equilibrium constant for the complex coming apart.

The values are drawn from paper PMC3711439, “Mechanisms of in vivo binding site selection of the hematopoietic master transcription factor PU.1”.
